A protein production outcome set (Wang et al. 2014)

Assay: label from the status in PepcDB records

Sequence | protein production
MAAPELLIPWADFLLCVALIAVAGNRLSRYGDVIAEKTGLSGSWIGLILLATATSLPELITGAAAVTAAGAPDIAAGDVLGSCVFNLVILVALDFLHRHESVYRRASQGHLLSAGFGIILLGLVGVNLLLADKHIVPTLGWVGLYSPLLGLLYLFSMRAVFLYEREQMAAFTEDMTEQYPGIRLRRAVMWYVAVAAVVVGAGVWLPSIGTTLAEVMGWNKSFVGTLFVAAATSMPELSVTIGAVRIRAVDMAIANLLGSNLFDLCILAIDDLAYLPGPLLSHVSSVHALSAFSAMVMTGIFIVGLLYRAGTRLFKTVGWVSIALLLVYLGNAYVLYLYDK | failed
MSMIRLTVEETNLLSIYNEGGKRALIENVNAALPYMDADMRELAKRTLSKVDALTEAEFAELPIYAADEV | failed
MTLHEHTDEETAEHNLPSKSSGSTRRLALVAVVNFFGFVIELAGGLLFGSVALISDALHMLFDMLAYAMAFGASYTAERFEGGEAWSYGLHRLEPVAAFLNGVLLLPMVGYIVWESYQRFLEPVAINPELTLIIATGGLLVNIGSVYVLQGGEMSLNERGAFYHLLGDAGGSVAVIVSTAAVAVFDLPIADPVAAVLIGLLVLASAGNVLRESTSILLERSPVSSEELRDELTTLDGVDQIEDLHVWQVCSQLTVATVRLTDTSTTLEEQRRIQSRVHDYLTNRGIDHATVELVGRTDPDTDPVGTTNHSH | failed
MSYNNSYDVIILAGGLSKRFGADKCCFEVNSKTMLDRLLEQFDNPIVVSRSPRRIKKGILVIEKGEYEGPVKGVREGLKYVRRDRVFITGCDFPFLIKNLVDYVCSKPYDIVIPFDHRPQPLLACYSTELLNKNIDKINGLVELIELSSSVYFIGTEELLKIDPFLYSLININSIIDLIYRPIRIKTKSNFILRLEHHHHHH | failed
MKLDEIARLAGVSRTTASYVINGKAKQYRVSDKTVEKVMAVVREHNYHPNAVAAGLRAGRTRSIGLVIPDLENTSYTRIANYLERQARQRGYQLLIACSEDQPDNEMRCIEHLLQRQVDAIIVSTSLPPEHPFYQRWANDPFPIVALDRALDREHFTSVVGADQDDAEMLAEELRKFPAETVLYLGALPELSVSFLREQGFRTAWKDDPREVHFLYANSYEREAAAQLFEKWLETHPMPQALFTTSFALLQGVMDVTLRRDGKLPSDLAIATFG | failed
MKIEQLYTGCLAEAAYYIESEGEAIIIDPLRDIQTYVQKIERNNVTLKYIFETHFHADFVSGHLDLAEATGATIVYGPKAETTFNSHIAYDGEKISIGKITLQVLHTPGHTQESSCYLLYDEDGNKHALFTGDTLFIGDVGRPDLAIKSDLTKEDLAGMLYDSLEEKIKPLPDAITIYPAHGAGSACGKNLSKETFDTLGSQKQKNYALKAADKETFIKQVLDDLQPAPSYFNMNALLNKEGPGSVSELIKQGSIAFDVQSFENLQRQTYAVLLDTRDAKEFKKGFIPGSINIGLNGQLAPWAGTLLTNSDKPILIITDPGKEEETIIRLARVGVDQVIGYLKDGYNSWQKANKPEENIETISAAELVEKLDENINILDVRKADEYEKGHLNAAQHLPLDYINDWITTLDKNKTYYVHCAGGYRSVITESILKSRNISNVIDVSGGYGAIKAAMEPTKKRWLNAFFSFMKVK | failed
MGHHHHHHSHTGKTTFSATIHALEGGVVADCDVDAPNLHILLKPQILKAEDFIASKKARIMPEKCSSCGLCYDLCRFGAVVAEDGYYVDEKKCEGCAFCFNVCPERAIEMENVKTGDLYVSKTEWGYFVHARLKPGEENTGRLVTEVKNRAKEIAEESNAEFLIVDSAPGVGCPVMASLTGVDAAIIVTEPTVSGLSDMLRILELCEHFRIRPFVVVNKFDLNVNIASEIESYCSENGVEFAGRVPFDKAIPEQIANLNFPFSGKAADKMVEIWKKLRE | not failed
MEMINVFVYGTLRRGGGNHQLIAEYVQSVHEATVKGMLFHLPYGYPAMVDGRGTVRGEILELSNPETALTILDELEGYHGPGQSNEYERITVTAVTADGNKYICYTYVYPEEQREWLEQNAQPIFGGDWMAFLHSKDEVMYFAYGSCMSERDFRRTVPHFEVMGRAVLDDYRLAFTRYSSGRQGGVADIVPSPGDRVEGVLYKISSRYVKDLDWREGVPAGVYRREYIDVQHNGQLVSALTYVVVEKQLDEIAPSESYASIILDEGTSLLSPQYIEQVRRHIETLQKKGR | failed
MTQDEWIDIPQGWSQGRTIYGGLVAGLLMHKALSVMNDESKNLLSTSITFVGPVNEGRVRLTVEILRQGKSVTTIEARLWQDQAVQTILIASFGQPRSLEHHHHHH | not failed
MNRREVRCAFSASKAARAQLLLRGKVRLEPLPTRPRTVLGLDASYSAKDGVGVGAAVLISLETLEPVDCRVYISRVCIPYIPGLLAFRELAVMAPAAAALSAEADVVMVDGHGIAHPRRFGIASHVGVILERPSIGVAKKKLVGTLVEGPGGMYVVQDGERLAIVLGTRPREVYVSPGHRITLEEAASIARATIRPGGWMPEPTRLADVISKALKTIIGGQSLINSALASLCRVKLGPRLEELERPLRRAGLEVELEHHHHHH | failed
MNLLYMVLIGQIILFLIGAMYAIGQTKKTRNNMPLPLAVRLILSFSLTASAIWIWLQDPSVDYSTWVALGMTLSTVGDLFMAGLIPIGHRLIGGMITFALAHCFYVKAFLQTGISWNGFWIGLLVYGLFLIIGWFFFIRNEKQDKLFTIGALIYGLWVGGMACFAFALYYENTGIWWIPAFGGLLFVISDFIIGVTDIGGRKLKYEPLWIWFTYVAAQMCIVYVGI | failed
MTTIRRFSCNDLLRFTSVNLDHLTETFNMSFYMTYLARWPDYFHVAEGPGNRVMGYIMGKVEGQGESWHGHVTAVTVSPEYRRQQLAKKLMNLLEDISDKIDKAYFVDLFVRASNTPAIKMYEKLGYIIYRRVLRYYSGEEDGLDMRKALSRDVEKKSVIPLKRPITPDELEYD | failed
MKPIHVGLLGLGTVGGGTLTVLRRNAEEITRRAGREIRVVRAAVRNLDKAEALAGGLPLTTNPFDVVDDPEIDIVVELIGGLEPARELVMQAIANGKHVVTANKHLVAKYGNEIFAAAQAKGVMVTFEAAVAGGIPIIKALREGLTANRIEWLAGIINGTSNFILSEMRDKGAAFDDVLKEAQRLGYAEADPTFDIEGIDAAHKLTILSAIAFGIPMQFERAYTEGISQLTREDVRYAEELGYRIKLLGIARRAENGIELRVHPTLIPERRLIANVDGAMNAVLVKGDAVGPTLYYGAGAGSEPTASAVVADLVDVTRLHTADPHHRVPHLAFQPDQLADTPILPMEAVRTAYYLRLRAFDRPGVLADITRILADSSISIDAMVQKEPAEGEEQVDIILLTHVTLEKNVNAAIAKIEALDAVAGKVMRIRLEDLGAK | not failed
KDNTKVIAHRGYWKTEGSAQNSIRSLERASEIGAYGSEFDVHLTADNVLVVYHDNDIQGKHIQSCTYDELKDLQLSNGEKLPTLEQYLKRAKKLKNIRLIFELKSHDTPERNRDAARLSVQMVKRMKLAKRTDYISFNMDACKEFIRLCPKSEVSYLNGELSPMELKELGFTGLDYHYKVLQSHPDWVKDCKVLGMTSNVWTVDDPKLMEEMIDMGVDFITTDLPEETQKILHSRAQ | not failed
MKVYPKVSIVMPVYNSERYLAEAIESILDQTYNDFEFIIVDDGSTDESYNIISSYANKDNRIIVISREHRGLVDSLNEGINIARGKYIARMDADDISINNRIEKQFEFLELNKDVDILGTRIEAFGDIDEKQKTIYNSAFSIKFDSQNIEQVFLTSCAIPHPSVMFKKDSIVKLRGYRKEYDTAEDYDLWLRAIRNGYKIVRMDECLIKYRVHNKSKTAVEMFNPKMVEYTMKAKIDYINDTNKKDKVDYLIWGASTGGKLVKKVVESTTDKFNLIGFIDKYKEGEVDECRIYKPEDLMKLHSDYVFIATLPGKEEADEFLKNCGLKKFKEYISLVLEHHHHHH | failed
MWQLLSRLNKNLVLTIPAMMAAGFVFGLVTETGFLKELIIPFTFLMVYPMMVTLKLKKVLEGGDGKAQLFTQFINFAVVPFVAFGLGRLFFADRPYMALGLLLAALVPTSGMTISWTGFARGNLEAAVKMTVVGLILGSIATPFYVQALMGAHVEVDMTGIMKQIAVIVFLPMAVGYATQRYLIAKHGQKGFQEQWAPRFPCLSTLGVLGIVFIAIALKAQAIAARPQDLLAILLPLAILYGINYSLSTVVGRLFLPRGDAIALAYGTVMRNLSIALAVAMNAFGKAGSDAALVIALAYIIQVQSAAWYVKFTGTLFGEAPAPSCPAPRRN | failed
MFENTLVVIKGAGDIATGVGRRLFRCGFPLVMTEQLQPTPVRRTVAFAEAVYKGETTVEGVTARLIEDPAHVYSTLREGHIPIIPDPEAHIIRVLNPKVVVDAILAKKNLGTAKSNAPIVIGLGPGFTAGKDVHAVIETNRGHNLGRVILNGSAEPNTGVPGVVNGYGSERVLRSPADGAIVPIREIGDFLLKGDVIAVVEGEPVVAPFDGTLRGLVHEKVTVFKGMKIGDVDPRASREHCYTISDKALAISGGVLEAILSHRHVITE | failed
MAAPRVIMAAPRVIMAAITGVTPEVVNRTRPERRDLADMRAAMKTGFTAVASVIGVGVAGLAYGVIEAHRFVVRHVEVPVLKPGSSPLRILHMSDLHLLARQETKRRFIRQLDALNPDLVINTGDNFCSADSLQPLLDDMSGLLQRPGTFVFGSNDYLVPKFKNPFSYLLWGRSQQATEPVPELPHEELRQAFTSAGWLDLNDKSETLEVAGHRLTLRGTDDAHHDRDHYEEVAGPPDGEADLNIGVTHAPYLKILDAMVSDGMDIVFAGHTHGGQVCLPFTGAIITNCDLDTERAKGLSQHGRGGHTGWLHVSAGLGCSPFAPYRTFCRPEATLLTLVPRP | failed
VQSKNPVLIEGFPGIGLVGNIASQHIIEELNMEYIGSIDSRYFPSIAVLYEGLINMPVRIYENVEHNLIIVISDIPISHSVSYDVSNALVDWAEAINVKEIASIAGIAIMDGGHKVFGAATTPEMLDKIRDKVEIFQMGTISGISGSVMAECLLRGIPAISLLGATRTQNPDPRAASSVIGVLNELYGLSISTDRLIEQAERIEIELQRLAEDVQATERKGEVKKEFPMYG | failed
MSLDCRVRESIQEEAKGIVAPPELKEKVIVQIKMNQGGRKRKKRLIAGVLAAAFLIPTTGFAYQSIMADGIYGSFENLKKHAGTMTLEAYMRFSAKLSEAKDEMGTKEYEVFTKELKKLTNAKLAYGDSNGNIDYDALSSEKREEMKKVSMGLQPYFDKLNGHKSSKEVLTQEEFDRYMEALMTHEIVRVKTKSTGAIKVEEIPEAYKERFIKAEQFMEYVDEKVR | not failed
MTRPQAAAEDARNAMVAGLLASGISVNGLQPSHNPQVAAQMFTTATRLDPKMCDAWLARLLAGDQSIEVLAGAWAAVRTFGWETRRLGVTDLQFRPEVSDGLFLRLAITSVDSLACAYAAVLAEAKRYQEAAELLDATDPRHPFDAELVSYVRGVLYFRTKRWPDVLAQFPEATQWRHPELKAAGAAMATTALASLGVFEEAFRRAQEAIEGDRVPGAANIALYTQGMCLRHVGREEEAVELLRRVYSRDAKFTPAREALDNPNFRLILTDPETIEARTDPWDPDSAPTRAQTEAARHAEMAAKYLAEGDAELNAMLGMEQAKKEIKLIKSTTKVNLARAKMGLPVPVTSRHTLLLGPPGTGKTSVARAFTKQLCGLTVLRKPLVVETSRTKLLGRYMADAEKNTEEMLEGALGGAVFFDEMHTLHEKGYSQGDPYGNAIINTLLLYMENHRDELVVFGAGYAKAMEKMLEVNQGLRRRFSTVIEFFSYTPQELIALTQLMGRENEDVITEEESQVLLPSYTKFYMEQSYSEDGDLIRGIDLLGNAGFVRNVVEKARDHRSFRLDDEDLDAVLASDLTEFSEDQLRRFKELTREDLAEGLRAAVAEKKTK | failed
VLEVTQKATPNPSLLAAEDQVPCEKCGSLVPVWDMPEHMDYHFALELQKSFLQPHSSNPQVVSAVSHQGKRNPKSPLACTNKRPRPEGMQTLESFFKPLTH | failed
